Laboratory results published in patent US20190071480A1 (Biogen, published 2019).
Blank lines part the entries; values can stand above or below the binder they belong to.

Tests used:
[1] = target: T1, extracellular domain of activin receptor type IIB (ActRIIBecd), biotinylated (Homo sapiens (Human), UniProt Q13705 27-117, amino-biotinylated with amine-PEG3-Biotin); assay: BIAcore SPR as Example 5 (method not restated); SD ±1.60 nM
T1 construct: immobilised on a streptavidin-coated sensor chip; also called biotinylated ActRIIBecd; extracellular domain of ActRIIB
T1 sequence: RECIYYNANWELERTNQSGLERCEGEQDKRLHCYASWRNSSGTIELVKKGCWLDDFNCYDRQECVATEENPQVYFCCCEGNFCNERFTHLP
Method: (§1) Biosensor experiments. In one embodiment, experiments were performed on a BIAcore™ T100/T200 instrument (Pharmacia Biosensor AB) in the multichannel mode (serial flow path involving flow cells 1+2+3+4). Flow rate was 10 μl/min; temperature was 25° C.; and data were recorded at 2.5 points/s. All four segments of a sensor chip CMS were coated with streptavidin (Sigma) to a density of 2000 pg/mm² (2000 resonance units) by the aminocoupling procedure. ActRIIBecd (10 mg) and amine-PEG3-Biotin (10 mg, Pierce, Rockford, Ill.) were dissolved in 200 μl H₂O and 10 mg NaCNBH₃ was added to prepare biotinylated ActRIIBecd. The reaction mixture was heated at 70° C. for 24 h, after that a further 10 mg NaCNBH₃ was added and the reaction was heated at 70° C. for another 24 h. After cooling to room temperature, the mixture was desalted with the spin column (3,000 molecular weight cut off (MWCO)). […] Sensograms were recorded during flow of the analyte (the ActRIIBecd-associated polypeptides (i.e., domains) as previously described) first through flow cell 1 (control) then through flow cell 2 (biotinylated ActRIIBecd). […] The sensograms obtained at 1.11, 3.33, 10, 30, and 90 nM analyte were evaluated for equilibrium binding, association rate, and dissociation rate by using the programs supplied with the instrument (BIA evaluation 2.1; Software Handbook. 1995; Pharmacia Biosensor AB).

[2] = target: T1, extracellular domain of activin …; assay: Mean KD column of Table 5; method not restated (BIAcore as Example 5); species also listed in Table 4
Outline: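 Biotinylated ActRIIBecd captured on streptavidin-coated sensor chip (50-250 RU); analytes in glycine buffer pH 4.5 flowed at 10 μl/min, 25° C., at 1.11, 3.33, 10, 30 and 90 nM. Reference-cell-subtracted sensorgrams fitted for equilibrium binding, association and dissociation rates.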

[3] = target: T1, extracellular domain of activin …; assay: BIAcore SPR as Example 5 (method not restated); SD ±1.38 nM
Method: as §1

[4] = target: T1, extracellular domain of activin …; assay: BIAcore SPR as Example 5 (method not restated); SD ±2.35 nM
Method: as §1

[5] = target: T1, extracellular domain of activin …; assay: BIAcore SPR as Example 5 (method not restated); SD ±1.05 nM
Method: as §1

[6] = target: T1, extracellular domain of activin …; assay: BIAcore SPR as Example 5 (method not restated); SD ±1.39 nM
Method: as §1

[7] = target: T1, extracellular domain of activin …; assay: BIAcore SPR as Example 5 (method not restated); SD ±1.71 nM
Method: as §1

[8] = target: T1, extracellular domain of activin …; assay: BIAcore SPR, biotinylated ActRIIBecd on chip; SD ±18.12 nM
Method: as §1

[9] = target: T1, extracellular domain of activin …; assay: BIAcore SPR as Example 5 (method not restated); SD ±2.71 nM
Method: as §1

[10] = target: T1, extracellular domain of activin …; assay: BIAcore SPR as Example 5 (method not restated); SD ±2.08 nM
Method: as §1

[11] = target: T1, extracellular domain of activin …; assay: BIAcore SPR as Example 5 (method not restated); SD ±0.75 nM
Method: as §1

[12] = target: T1, extracellular domain of activin …; assay: BIAcore SPR as Example 5 (method not restated); SD ±0.67 nM
Method: as §1

[13] = target: T1, extracellular domain of activin …; assay: BIAcore SPR as Example 5 (method not restated); SD ±3.57 nM
Method: as §1

[14] = target: T1, extracellular domain of activin …; assay: BIAcore SPR as Example 5 (method not restated); SD ±1.30 nM
Method: as §1

[15] = target: T1, extracellular domain of activin …; assay: BIAcore SPR as Example 5 (method not restated); SD ±2.66 nM
Method: as §1

[16] = target: T1, extracellular domain of activin …; assay: BIAcore SPR as Example 5 (method not restated); SD ±1.13 nM
Method: as §1

[17] = target: T1, extracellular domain of activin …; assay: BIAcore SPR as Example 5 (method not restated); SD ±1.76 nM
Method: as §1

- Kd [1]: 5.71 nM
- Kd [2]: 5.71 nM
B1: SEQ ID NO: 276, cysteine pairs C67-C71^a, C8-C41^a, C9-C43^a, C109-C109^b (designed binder)
chain: NSKIPKACCVPTELSAISMLYLDENEKVVLKNYQDMVVEGCGCRVDFSDVGWNDWIVAPPGYHAFYCHGECPFPLADHLNSTNHAIVQTLVNSVAQAKHKQRKRLKSSCKRHPLY
modifications: disulfides C67-C71 (intra), C8-C41 (intra), C9-C43 (intra), C109-C109 (inter)
notes: homodimer by intermolecular disulfide

- Kd [3]: 6.31 nM
- Kd [2]: 6.31 nM
B2: SEQ ID NO: 276, cysteine pairs C67-C71^a, C8-C43^b, C9-C41^b, C109-C109^b (designed binder)
chain: NSKIPKACCVPTELSAISMLYLDENEKVVLKNYQDMVVEGCGCRVDFSDVGWNDWIVAPPGYHAFYCHGECPFPLADHLNSTNHAIVQTLVNSVAQAKHKQRKRLKSSCKRHPLY
modifications: disulfides C67-C71 (intra), C8-C43 (inter), C9-C41 (inter), C109-C109 (inter)
notes: as for B1

- Kd [4]: 27.9 nM
- Kd [2]: 27.9 nM
B3: SEQ ID NO: 276, cysteine pairs C8-C9^a (designed binder)
chain: NSKIPKACCVPTELSAISMLYLDENEKVVLKNYQDMVVEGCGCRVDFSDVGWNDWIVAPPGYHAFYCHGECPFPLADHLNSTNHAIVQTLVNSVAQAKHKQRKRLKSSCKRHPLY
modifications: disulfides C8-C9 (intra)

- Kd [5]: 7.66 nM
- Kd [2]: 7.66 nM
B4: SEQ ID NO: 276, cysteine pairs C67-C71^a, C8-C43^a, C9-C41^a, C109-C109^b (designed binder)
chain: NSKIPKACCVPTELSAISMLYLDENEKVVLKNYQDMVVEGCGCRVDFSDVGWNDWIVAPPGYHAFYCHGECPFPLADHLNSTNHAIVQTLVNSVAQAKHKQRKRLKSSCKRHPLY
modifications: disulfides C67-C71 (intra), C8-C43 (intra), C9-C41 (intra), C109-C109 (inter)
notes: as for B1

- Kd [6]: 5.14 nM
- Kd [2]: 5.14 nM
B5: SEQ ID NO: 300, cysteine pairs C23-C27^a, C65-C65^b, C79-C112^a, C80-C114^a (designed binder)
chain: VDFKDVGWNDHAVAPPGYHAFYCHGECPFPLADHLNSDNHAIVQTKVNSVGQAKRKGYKRLKSSCKRHPLYNSKDPKACCVPTELSAPSPLYLDENEKPVLKNYQDMVVHGCGCR
modifications: disulfides C23-C27 (intra), C65-C65 (inter), C79-C112 (intra), C80-C114 (intra)
notes: as for B1

- Kd [7]: 7.37 nM
- Kd [2]: 7.37 nM
B6: SEQ ID NO: 300, cysteine pairs C23-C27^a, C65-C65^b, C79-C114^a, C80-C112^a (designed binder)
chain: VDFKDVGWNDHAVAPPGYHAFYCHGECPFPLADHLNSDNHAIVQTKVNSVGQAKRKGYKRLKSSCKRHPLYNSKDPKACCVPTELSAPSPLYLDENEKPVLKNYQDMVVHGCGCR
modifications: disulfides C23-C27 (intra), C65-C65 (inter), C79-C114 (intra), C80-C112 (intra)
notes: as for B1

- Kd [8]: 56 nM
B7: Clone No. 16 domain (ActRIIBecd-associated polypeptide) (peptide)
chain: VDFSDVGWNDWAVAPPGYHAFYCHGECPFPLADHLNSDNHAIVQTLVNSV

- Kd [9]: 29.6 nM
- Kd [2]: 29.6 nM
B8: SEQ ID NO: 268, cysteine pairs C23-C79^a (designed binder)
chain: VDFSDVGWNDWIVAPPGYHAFYCHGECPFPLADHLNSTNHAIVQTLVNSVAQAKHKQRKRLKSSCKRHPLYNSKIPKACCVPTELSAISMLYLDENEKVVLKNYQDMVVEGCGCR
modifications: disulfides C23-C79 (intra)

- Kd [10]: 8.74 nM
- Kd [2]: 8.74 nM
B9: SEQ ID NO: 268, cysteine pairs C23-C27^a, C65-C65^b, C79-C114^a, C80-C112^a (designed binder)
chain: VDFSDVGWNDWIVAPPGYHAFYCHGECPFPLADHLNSTNHAIVQTLVNSVAQAKHKQRKRLKSSCKRHPLYNSKIPKACCVPTELSAISMLYLDENEKVVLKNYQDMVVEGCGCR
modifications: disulfides C23-C27 (intra), C65-C65 (inter), C79-C114 (intra), C80-C112 (intra)
notes: as for B1

- Kd [11]: 7.96 nM
- Kd [2]: 7.96 nM
B10: SEQ ID NO: 268, cysteine pairs C23-C27^a, C65-C65^b, C79-C112^b, C80-C114^b (designed binder)
chain: VDFSDVGWNDWIVAPPGYHAFYCHGECPFPLADHLNSTNHAIVQTLVNSVAQAKHKQRKRLKSSCKRHPLYNSKIPKACCVPTELSAISMLYLDENEKVVLKNYQDMVVEGCGCR
modifications: disulfides C23-C27 (intra), C65-C65 (inter), C79-C112 (inter), C80-C114 (inter)
notes: as for B1

- Kd [12]: 4.77 nM
- Kd [2]: 4.77 nM
B11: SEQ ID NO: 292, cysteine pairs C15-C80^a, C44-C112^a, C48-C114^a, C79-C79^b (designed binder)
chain: GQAKRKGYKRLKSSCKRHPLYVDFKDVGWNDHAVAPPGYHAFYCHGECPFPLADHLNSDNHAIVQTKVNSVNSKDPKACCVPTELSAPSPLYLDENEKPVLKNYQDMVVHGCGCR
modifications: disulfides C15-C80 (intra), C44-C112 (intra), C48-C114 (intra), C79-C79 (inter)
notes: as for B1

- Kd [13]: 5.81 nM
- Kd [2]: 5.81 nM
B12: SEQ ID NO: 292, cysteine pairs C15-C15^b, C79-C114^a, C80-C112^a, C44-C48^a (designed binder)
chain: GQAKRKGYKRLKSSCKRHPLYVDFKDVGWNDHAVAPPGYHAFYCHGECPFPLADHLNSDNHAIVQTKVNSVNSKDPKACCVPTELSAPSPLYLDENEKPVLKNYQDMVVHGCGCR
modifications: disulfides C15-C15 (inter), C79-C114 (intra), C80-C112 (intra), C44-C48 (intra)
notes: as for B1

- Kd [14]: 5.54 nM
- Kd [2]: 5.54 nM
B13: SEQ ID NO: 292, cysteine pairs C80-C114^b, C79-C112^b, C44-C48^a (designed binder)
chain: GQAKRKGYKRLKSSCKRHPLYVDFKDVGWNDHAVAPPGYHAFYCHGECPFPLADHLNSDNHAIVQTKVNSVNSKDPKACCVPTELSAPSPLYLDENEKPVLKNYQDMVVHGCGCR
modifications: disulfides C80-C114 (inter), C79-C112 (inter), C44-C48 (intra)
notes: as for B1

- Kd [15]: 29 nM
- Kd [2]: 29 nM
B14: SEQ ID NO: 292, cysteine pairs C79-C80^a (designed binder)
chain: GQAKRKGYKRLKSSCKRHPLYVDFKDVGWNDHAVAPPGYHAFYCHGECPFPLADHLNSDNHAIVQTKVNSVNSKDPKACCVPTELSAPSPLYLDENEKPVLKNYQDMVVHGCGCR
modifications: disulfides C79-C80 (intra)

- Kd [16]: 4.89 nM
- Kd [2]: 4.89 nM
B15: SEQ ID NO: 284, cysteine pairs C59-C59^b, C8-C41^a, C9-C43^a, C88-C92^a (designed binder)
chain: NSKIPKACCVPTELSAISMLYLDENEKVVLKNYQDMVVEGCGCRAQAKHKQRKRLKSSCKRHPLYVDFSDVGWNDWIVAPPGYHAFYCHGECPFPLADHLNSTNHAIVQTLVNSV
modifications: disulfides C59-C59 (inter), C8-C41 (intra), C9-C43 (intra), C88-C92 (intra)
notes: as for B1

- Kd [17]: 5.79 nM
- Kd [2]: 5.79 nM
B16: SEQ ID NO: 284, cysteine pairs C59-C59^b, C8-C41^b, C9-C43^b, C88-C92^a (designed binder)
chain: NSKIPKACCVPTELSAISMLYLDENEKVVLKNYQDMVVEGCGCRAQAKHKQRKRLKSSCKRHPLYVDFSDVGWNDWIVAPPGYHAFYCHGECPFPLADHLNSTNHAIVQTLVNSV
modifications: disulfides C59-C59 (inter), C8-C41 (inter), C9-C43 (inter), C88-C92 (intra)
notes: as for B1
